The text below walks through data of patent publication US20100292147A1 (UNIVERSITY OF UTAH RESEARCH FOUNDATION, published 2010).

Test [1] addresses T1, HBD wt peptide (hepcidin binding domain of ferroportin with two arginines at each end).
T1 construct: Synthetic peptide; also called I-HBD (when immobilized on agarose beads or 96-well plates); HBD-beads
T1 peptide: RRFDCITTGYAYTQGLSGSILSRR
The test is described as follows: binding to HBD, data not shown.

Test [2] has as its target T1, HBD wt peptide (hepcidin binding domain …). The test is described as follows: competition with sub saturating ^125I-hepcidin (0.6 ug/ml) for bead-immobilized HBD (I-HBD), 18 h at 37 C, gamma counting (FIG. 2B). The method, then:
FIGS. 2A-C illustrates that the binding of ¹²⁵I-hepcidin to HBD is specific and temperature dependent. In FIG. 2A peptides (HBD, scrambled-HBD or mutant (C326Y HBD) were conjugated to beads and ¹²⁵I-hepcidin was added to the bead-immobilized peptides (I-HBD) for 18 hours at 37° C. (black bars) or 4° C. (grey bars). The beads were washed and the amount of ¹²⁵I-hepcidin bound to the I-HBD was determined. In FIG. 2B a sub saturating concentration of ¹²⁵I-hepcidin (0.6 μg/ml) was incubated with I-HBD for 18 hours at 37° C. in the presence or absence of known concentrations of either hepcidin 25 (Hep 25-open circles) or hepcidin 25 synthesized with a tyrosine substitution at position M21 (Y-Hep 25) and the amount of radioactivity bound to the I-HBD determined. In FIG. 2C sub saturating levels of ¹²⁵I-hepcidin were incubated with I-HBD at different temperatures.
HBD peptides were immobilized by covalently attaching them to agarose beads. Immobilization was performed using AminoLink Plus Immobilization Kit (Pierce) following the manufacturer's instructions. 1.0 mg of HBD peptide was used per 2.0 ml of AminoLink beads. To measure hepcidin concentrations in biological fluids, samples were mixed with a defined concentration of ¹²⁵I-hepcidin and then added to HBD conjugated beads. […] The fluid was removed and the radioactivity bound to beads was determined by gamma counting (Perkin/Elmer).

No end group written: not given here.

B1: Hep20 (hepcidin 20, hepcidin lacking the five amino terminal amino acids) (peptide)
peptide: ICIFCCGCCHRSKCGMCCKT
modifications: ends and bridges not checked; also: native intramolecular disulfides, pairing not given here
B1: the binding result in test [1] was “no binding”.

B2: hepcidin (hepcidin 25, native non-radioactive hepcidin) (peptide, UniProt P81172 60-84, looked up)
peptide: DTHFPICIFCCGCCHRSKCGMCCKT
modifications: ends and bridges not checked; also: native intramolecular disulfides, pairing not given here
notes: mature; Synthetic peptide; also called Hep 25; Hep25
For B2, the “apparent K” value in test [2] was about 200 nM.
